The text below walks through data of the RNAGym collection of RNA variant scans (doi:10.1093/nar/gkz1192).

B1: CPEB3 Ribozyme (parent)
chain: UAACAGGGGGCCACAGCAGAAGCGUUCACGUCGCAGCCCCUGUCAGAUUCUGGUGAAUCUGCGAAUUCUGCUGUAUAUCUC

The variants in this data set derive from B1. As to the kind of experiment: self-cleavage, relative activity (ratio to wild type); higher = more cleavage; in vitro, sequencing. The procedure, abridged:
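Relative activity was defined as the cleaved/total read fraction for a variant divided by the same fraction for the unmutated ribozyme. CPEB3 self-cleaving ribozyme libraries were made by rounds of error-prone PCR, barcoded, and transcribed in vitro with T7 RNA polymerase for 5 hours at 37°C, and cleavage ran through transcription plus a 15 min DNase I step before EDTA. Illumina sequencing of template-switched reverse transcripts gave the reads, and DNA sequencing mapped the barcodes. Averages come from three batches, using variants with at least 5 reads.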
Consider U31C U76G, for which the self-cleavage came out at 0.8.

Regarding G30U U69A, the self-cleavage came out at 0.1.

In the case of G53A U60C, the self-cleavage worked out at 0.69.

Turning to A20U U76C, the self-cleavage is 0.36.

In the case of U26G U41C, the self-cleavage was 0.4.

For the variant C17U G24C, the self-cleavage was 0.11.

On to A35U U48C, for which the self-cleavage amounted to 0.32.

As to A18G U58C, the self-cleavage was determined as 0.28.

As to U60C A77G, the self-cleavage came to 0.51.

Regarding C68A U74A, the self-cleavage worked out at 0.52.

Take G8A U80C: the self-cleavage came out at 0.19.

A2G U80A: the self-cleavage was found to be 0.77.

In the case of C32A C38G, the self-cleavage was 0.18.

In the case of A35G U43C, the self-cleavage stood at 1.22.

As for A13G U78C, the self-cleavage worked out at 0.94.

A35C U69A: the self-cleavage was 0.53.

Turning to U49C G73U, the self-cleavage is 0.77.

On to A28U U66C, for which the self-cleavage came to 0.37.

On to A3G U41A, for which the self-cleavage worked out at 0.3.

In the case of A5C U43A, the self-cleavage amounted to 1.13.

In the case of U60C U78A, the self-cleavage was 0.55.

Consider A18G U76C, for which the self-cleavage was 0.58.

As for A2U U26A, the self-cleavage stood at 0.87.

As for C11U U74A, the self-cleavage was determined as 0.96.

Take G9A A21G: the self-cleavage amounted to 0.19.

Regarding A47G U67A, the self-cleavage is 0.49.

For the variant U76C, the self-cleavage was 1.1.

With A77U U78A, the self-cleavage came to 0.9.

In the case of C23A U66A, the self-cleavage was 0.1.

As to U60A U66C, the self-cleavage amounted to 0.34.

For U41C U74C, the self-cleavage worked out at 1.23.

Take C59U U72C: the self-cleavage came out at 1.14.

As for U72G A77G, the self-cleavage stood at 1.

With A64U U69A, the self-cleavage was 0.32.

Regarding A45U U54A, the self-cleavage is 0.51.

For A5G G42A, the self-cleavage is 0.4.

As for G6U U60C, the self-cleavage came out at 0.24.

Take U54C U67C: the self-cleavage stood at 0.26.

As for C4U U49C, the self-cleavage came out at 0.69.

As for G33C A56U, the self-cleavage is 0.14.

As to U66C G70A, the self-cleavage was 0.35.

For the variant U51G A56C, the self-cleavage was 0.55.

Turning to A56U U67C, the self-cleavage is 0.26.

With C4U U67C, the self-cleavage worked out at 0.42.

Turning to A15G G70C, the self-cleavage stood at 0.11.

Turning to U69A U80G, the self-cleavage worked out at 0.76.

As to C23G U80C, the self-cleavage is 0.13.

For A3G C50G, the self-cleavage is 0.8.

In the case of G24C U49C, the self-cleavage is 0.46.

In the case of A28U U49A, the self-cleavage was 0.43.

For the variant G10C A35G, the self-cleavage worked out at 0.28.

For G30A U49C, the self-cleavage is 0.16.

In the case of U25A U54G, the self-cleavage was 0.2.

As to C27G A47U, the self-cleavage stood at 0.05.

U1A A21C: the self-cleavage worked out at 0.28.

For G7A G53A, the self-cleavage was determined as 0.19.

With C29G C59G, the self-cleavage is 0.2.

For the variant C34U C68U, the self-cleavage came out at 0.3.

For U26A C40G, the self-cleavage was determined as 0.17.

Take G16A: the self-cleavage turned out to be 0.34.

A13C G22A: the self-cleavage came out at 0.19.

On to A13U A45C, for which the self-cleavage is 0.38.

Take A5U C71A: the self-cleavage was determined as 0.48.

For the variant C27U G30A, the self-cleavage stood at 0.26.

U25C U69G: the self-cleavage worked out at 0.21.

With G10U U74C, the self-cleavage worked out at 0.46.

U25G U60A: the self-cleavage stood at 0.19.

As for U25G U60C, the self-cleavage stood at 0.24.

Consider G7U U69A, for which the self-cleavage came to 0.2.

For the variant U49A, the self-cleavage is 0.71.

Turning to G8U U58A, the self-cleavage is 0.32.

As for G7C A65G, the self-cleavage came out at 0.22.

As to G30U U60C, the self-cleavage came to 0.15.

As to A20G C32G, the self-cleavage stood at 0.12.

On to A28C U31G, for which the self-cleavage came out at 0.38.

In the case of A64G C81G, the self-cleavage was found to be 1.03.

As for G7A U54A, the self-cleavage is 0.47.

Consider A28U A35C, for which the self-cleavage was 0.47.

Turning to C34U A64U, the self-cleavage stood at 0.13.

With U43C, the self-cleavage worked out at 0.67.

With U49A C71U, the self-cleavage was 0.26.

On to U69C C81G, for which the self-cleavage is 0.89.

As for C14A U43A, the self-cleavage turned out to be 1.24.

For A21U A64G, the self-cleavage was found to be 0.18.

Take A57G G70C: the self-cleavage was 0.22.

With A15U G52A, the self-cleavage turned out to be 1.05.

In the case of A28U U67A, the self-cleavage amounted to 0.3.

Take A35G U60A: the self-cleavage was determined as 1.14.

Regarding G7A G8C, the self-cleavage stood at 0.15.

Take C34U U49C: the self-cleavage came out at 0.16.

For the variant U41G A65G, the self-cleavage was 0.35.

A5G U72A: the self-cleavage came out at 0.48.

On to C11U U80C, for which the self-cleavage turned out to be 0.45.

In the case of C29G U78C, the self-cleavage was determined as 0.21.

With U60C C71A, the self-cleavage turned out to be 0.25.

As to C62U, the self-cleavage was 0.2.

Regarding U26A G52A, the self-cleavage turned out to be 1.06.

Regarding C14G A65C, the self-cleavage worked out at 0.32.

For A21U C81A, the self-cleavage came out at 0.45.

Consider C40U C50A, for which the self-cleavage was 0.46.

Take U72C G73U: the self-cleavage amounted to 1.48.

With A64C U74C, the self-cleavage is 0.44.

Consider C32G C37U, for which the self-cleavage was found to be 0.31.

With U58G U60C, the self-cleavage came out at 0.3.

U41C C68U: the self-cleavage was 1.09.

Consider G9U U43C, for which the self-cleavage came out at 0.15.

As to G19U C50A, the self-cleavage was 0.15.

As to G10C A56G, the self-cleavage amounted to 0.15.

For the variant U26A U51G, the self-cleavage was 0.8.

Regarding G36C A45U, the self-cleavage turned out to be 0.14.

For the variant U41A G55A, the self-cleavage came out at 0.19.

With C38U A64U, the self-cleavage was 0.37.

On to G24U U72A, for which the self-cleavage was 0.11.

Consider U1A A18U, for which the self-cleavage was 0.41.

On to C62U U72C, for which the self-cleavage came to 0.29.

For the variant G9C U25C, the self-cleavage turned out to be 0.07.

Take U26C A28C: the self-cleavage amounted to 0.29.

As for C32U A45C, the self-cleavage was 0.15.

Turning to A2U U60A, the self-cleavage was determined as 0.56.

U66C C79A: the self-cleavage came out at 0.38.

For U49G U78C, the self-cleavage stood at 0.43.

Regarding G7C U48C, the self-cleavage was 0.4.

C37U U78G: the self-cleavage was 1.

In the case of A47U A77U, the self-cleavage was 0.71.

For A28G A47G, the self-cleavage was determined as 0.52.

Take U1A G46A: the self-cleavage stood at 0.43.

A13U A65C: the self-cleavage came to 0.17.

Turning to C59U A77G, the self-cleavage came out at 0.94.

Consider G19U C37A, for which the self-cleavage came out at 0.31.

C27G A64G: the self-cleavage is 0.23.

In the case of U1A A5G, the self-cleavage was found to be 0.68.

On to U54C A65C, for which the self-cleavage amounted to 0.4.

Consider C34U U69A, for which the self-cleavage came out at 0.13.

As for C11G U74G, the self-cleavage was found to be 0.84.

As to G6C A35U, the self-cleavage stood at 0.3.

Regarding U26C A56C, the self-cleavage stood at 0.31.

A35U G73A: the self-cleavage stood at 0.88.

As to A3U G63U, the self-cleavage came out at 1.19.

Take G9A U58C: the self-cleavage was found to be 0.25.

U51C U74A: the self-cleavage stood at 1.3.

Take C4U U78C: the self-cleavage was found to be 1.14.

Regarding C14U A64U, the self-cleavage came out at 0.61.

With G10U A15G, the self-cleavage came to 0.18.

For the variant A45C U80A, the self-cleavage worked out at 0.48.

With C38U G63A, the self-cleavage is 0.6.

On to G63U U66C, for which the self-cleavage was found to be 0.42.

On to G52U U74A, for which the self-cleavage is 1.26.

Take U25A U67A: the self-cleavage turned out to be 0.46.

For U51C U60G, the self-cleavage was found to be 0.4.

Regarding C32A C59A, the self-cleavage turned out to be 0.15.

As to G55C U78A, the self-cleavage is 0.97.

For A3U G52A, the self-cleavage amounted to 1.1.

As to U43A G52C, the self-cleavage was found to be 1.19.

Regarding G36A A45G, the self-cleavage was found to be 0.21.

As to A21U U80C, the self-cleavage turned out to be 0.53.

U41A A65U: the self-cleavage is 0.17.

Regarding U41G U67C, the self-cleavage was found to be 0.17.

Take U31A C32G: the self-cleavage is 0.12.

For A13G U26C, the self-cleavage was 0.38.

For G24U U76A, the self-cleavage is 0.4.

Take C38G U49A: the self-cleavage is 0.26.

For G19U A65G, the self-cleavage stood at 0.26.

Turning to A35G U80A, the self-cleavage turned out to be 1.32.

As for G8A C44U, the self-cleavage worked out at 0.08.

As for G30A G36U, the self-cleavage was determined as 0.44.

In the case of C17U A28U, the self-cleavage turned out to be 0.41.

Take U49A C50A: the self-cleavage stood at 0.5.
